Assay results reported in patent publication US20240084023A1 (NGM BIOPHARMACEUTICALS, published 2024).

Tests used:
[1] = biological target: T1, soluble human GCGR extracellular domain (human, UniProt P47871 26-136, limits assumed); test: Octet epitope binning; antibody in solution on GCGR ECD held by immobilized 14F4 (competitor)
T1 construct: also called soluble GCGR
Method: (§1) KD values for exemplary antibodies were derived using ForteBio software. Exemplary antibodies 6B5, 13G19, 14E9, 14F4, 4F8, 1G7, l A8, I H7, 1A2, 1B4, 1C1, 1H2, 1C3, and 1D2 were immobilized on biosensor tips. Soluble human GCGR extracellular domain (500 nM) was incubated with the antibodies for 3 minutes. […] The biosensor tips with bound antibody-GCGR complex were then dipped in 61B5, 5B11, or 3H-15 antibody solution and the change in signal measured as a nm shift. If the antibody in solution recognized the same epitope as the antibody immobilized on the chip surface, then <0.1 nm shift in signal (noise level of Octet) would be observed. If the antibody in solution recognized a distinct epitope relative to the immobilized antibody, an increase in signal of >0.15 nm shift would be observed. In the latter scenario, the antibody in solution could bind to the immobilized antibody-GCGR complex (presumably to a different epitope) resulting in the observed increase in signal.

[2] = biological target: T1, soluble human GCGR extracellular domain; test: Octet epitope binning; antibody in solution on GCGR ECD held by immobilized 6B5 (competitor)
Method: as §1

[3] = biological target: T1, soluble human GCGR extracellular domain; test: Octet epitope binning; antibody in solution on GCGR ECD held by immobilized 1C1 (competitor)
Method: as §1

[4] = biological target: T1, soluble human GCGR extracellular domain; test: Biacore SPR, captured antibody, soluble human GCGR extracellular domain as analyte
Method: In some experiments, supernatants were screened for binding to human GCGR using a Biacore SPR system. Briefly, anti-mouse Fc antibody (Sigma-Aldrich) was immobilized on all four flow cells of a CM5 chip using amine coupling reagents (GE Healthcare LifeSciences). Hybridoma supernatants were diluted three-fold with PBS-P buffer (PBS containing 0.005% P20) and injected for 30 seconds overflow cells 2, 3 and 4 to capture the test antibodies and using flow cell 1 as a reference. The next step was an injection of soluble human GCGR extracellular domain (100 nM in PBS-P buffer) at a flow rate of 50 μL/min and monitoring of the binding kinetics at 25° C. Kinetic data were collected over time and fit using the simultaneous global fit equation to yield affinity constants (KD values) for each antibody.

[5] = biological target: T1, soluble human GCGR extracellular domain; test: Octet epitope binning; antibody in solution on GCGR ECD held by immobilized 1G7 (competitor)
Method: as §1

[6] = biological target: T1, soluble human GCGR extracellular domain; test: Octet epitope binning; antibody in solution on GCGR ECD held by immobilized 1C3 (competitor)
Method: as §1

[7] = biological target: T1, soluble human GCGR extracellular domain; test: Octet epitope binning; antibody in solution on GCGR ECD held by immobilized 13G9 (competitor)
Method: as §1

[8] = biological target: T1, soluble human GCGR extracellular domain; test: Octet epitope binning; antibody in solution on GCGR ECD held by immobilized 1A2 (competitor)
Method: as §1

[9] = biological target: T1, soluble human GCGR extracellular domain; test: Octet epitope binning; antibody in solution on GCGR ECD held by immobilized 14E9 (competitor)
Method: as §1

[10] = biological target: T1, soluble human GCGR extracellular domain; test: Octet epitope binning; antibody in solution on GCGR ECD held by immobilized 1A8 (competitor)
Method: as §1

[11] = biological target: T1, soluble human GCGR extracellular domain; test: Octet epitope binning; antibody in solution on GCGR ECD held by immobilized 1D2 (competitor)
Method: as §1

[12] = biological target: T1, soluble human GCGR extracellular domain; test: Octet epitope binning; antibody in solution on GCGR ECD held by immobilized 1B4 (competitor)
Method: as §1

[13] = biological target: T1, soluble human GCGR extracellular domain; test: Octet epitope binning; antibody in solution on GCGR ECD held by immobilized 1H2 (competitor)
Method: as §1

[14] = biological target: T1, soluble human GCGR extracellular domain; test: Octet epitope binning; antibody in solution on GCGR ECD held by immobilized 1H7 (competitor)
Method: as §1

[15] = biological target: T1, soluble human GCGR extracellular domain; test: Octet epitope binning; antibody in solution on GCGR ECD held by immobilized 4F8 (competitor)
Method: as §1

[16] = biological target: full-length human GCGR on CHO cells (human, UniProt P47871 26-477); test: cell-based or functional assay
Chain of full-length human GCGR on CHO cells (P47871 26-477): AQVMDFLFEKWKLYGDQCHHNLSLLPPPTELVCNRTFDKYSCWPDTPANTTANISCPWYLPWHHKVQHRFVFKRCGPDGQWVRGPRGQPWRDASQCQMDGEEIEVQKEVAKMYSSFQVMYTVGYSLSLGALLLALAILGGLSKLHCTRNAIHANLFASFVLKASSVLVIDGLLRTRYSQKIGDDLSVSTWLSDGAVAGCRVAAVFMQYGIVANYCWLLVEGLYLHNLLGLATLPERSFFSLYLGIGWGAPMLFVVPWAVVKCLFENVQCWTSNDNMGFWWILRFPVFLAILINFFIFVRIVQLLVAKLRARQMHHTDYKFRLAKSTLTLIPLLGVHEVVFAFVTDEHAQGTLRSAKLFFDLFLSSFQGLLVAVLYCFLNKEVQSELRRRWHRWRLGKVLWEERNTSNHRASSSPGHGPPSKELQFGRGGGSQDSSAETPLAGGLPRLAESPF

T1 sequence (P47871 26-136 limits assumed): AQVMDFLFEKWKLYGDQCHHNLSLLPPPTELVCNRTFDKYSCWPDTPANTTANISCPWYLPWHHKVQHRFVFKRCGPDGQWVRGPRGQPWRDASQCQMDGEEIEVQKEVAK

B1: anti-GCGR antibody 3H5 (antibody, V domains shown)
VH: QVQLQQSGAELVKPGASVRLSCKASGNTFTNYWMHWVKQRPGQGLEWIGMIHPNSGSTHYNEKFKNKATLTVDKSSNTAYMQLSGLTSEDSAVYYCGATADYVMDYWGQGTSVTVSS
VL: DIVLTQTPLSLPVNIGDQASISCKSTKSLLNSDGFTYLDWYLQKPGQSPQLLINLVSNRFSGVPDRFSGSGSGTEFILKISRVEAEDLGVYYCFQSNFLPLTFGAGTKLELK
notes: mouse hybridoma monoclonal antibody; also called 3H-15
In the case of B1, the “Shift on Octet by Antibody in Solution (nm)” value (“Shift on Octet by Antibody” below) [1] is reported as under 0.05 nm, the “Shift on Octet by Antibody” value [2] is reported as under 0.05 nm and the “Shift on Octet by Antibody” value [3] is reported as under 0.05 nm. The Kd [4] was 2.2 nM, the “Shift on Octet by Antibody” value [5] was under 0.05 nm and the “Shift on Octet by Antibody” value [6] was under 0.05 nm. The “Shift on Octet by Antibody” value [7] was under 0.05 nm, the “Shift on Octet by Antibody” value [8] was under 0.05 nm and the “Shift on Octet by Antibody” value [9] was under 0.05 nm. The “Shift on Octet by Antibody” value [10] was under 0.05 nm, the “Shift on Octet by Antibody” value [11] was under 0.05 nm and the “Shift on Octet by Antibody” value [12] was under 0.05 nm. The “Shift on Octet by Antibody” value [13] was under 0.05 nm, the “Shift on Octet by Antibody” value [14] was under 0.05 nm and the “Shift on Octet by Antibody” value [15] was under 0.05 nm. The “cAMP assay-1 IC50” value [16] was 24.6 nM.
